Experimental data: the supplement of paper PMC7877785
± gives the uncertainty stated by the source.

Test: self-splicing fitness, log relative to wild type (ln ratio); higher = more splicing; Tetrahymena group I intron in knt gene, E. coli kanamycin selection, DiMSum; sequences stand for … in CUCUCU…GGAGGGAAAAGUUAUCAGGCAUGCACCUGGUAGCUAGUCUUUAAACCAAUAGAUUGCAUCGGUUUAAAAGGCAAGACCGUCAAAUUGCGGGAAAGGGGUCAACAGCCGUUCAGUACCAAGUCUCAGGGGAAACUUUGAGAUGGCCUUGCAAAGGGUAUGGUAAUAAGCUGACGGACAUGGUCCUAACCACGCAGCCAAGUCCUAAGUCAACAGAUCUUCUGUUGAUAUGGAUGCAGUUCACAGACUAAAUGUCGGUCGGGGAAGAUGUAUUCUUCUCAUAAGAUAUAGUCGGACCUCUCCUUAAUGGGAGCUAGCGGAUGAAGUGAUGCAACACUGGAGCCGCUGGGAACUAAUUUGUAUGCGAAAGUAUAUUGAUUAGUUUUGGAGUACUCGUGGUCG
Summary of the method: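 Library with all eight P1ex-region intron nucleotides randomised, intron inside the knt kanamycin-resistance gene on pET-22b(+), in E. coli BL21(DE3). Cells grew overnight at 37°C or 30°C on LB agar with or without 25 μg/mL kanamycin (plus 100 μg/mL carbenicillin, 50 μM IPTG, 0.2% rhamnose), in six replicate transformations. Pooled colonies were amplicon-sequenced on Illumina HiSeq 2500. DiMSum fitness is the error-weighted combination of wild-type-normalised replicate fold changes, kanamycin versus none.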

Sequence	self-splicing fitness (ln) (30 °C)	self-splicing fitness (ln) (37 °C)
GGAAAGCAAUAUUACGGGCC	-2.41 ± 0.23	-2.16 ± 0.32
GGAAAGCAAUAUUACGGGGU	-3.1 ± 0.22	-3 ± 0.28
GGAAAGCAAUAUUACGGUAA	-1.62 ± 0.15	-0.544 ± 0.12
GGAAAGCAAUAUUACGGUCA	-0.418 ± 0.09	0.154 ± 0.1
GGAAAGCAAUAUUACGUGUG	-2.41 ± 0.087	-0.505 ± 0.078
GGAAAGCAAUAUUACGUUGA	-2.31 ± 0.081	-1.27 ± 0.084
GGAAAGCAAUAUUACGUUUA	-1.89 ± 0.11	-1.16 ± 0.11
GGACAGCAAUAUUACGAAUA	-1.69 ± 0.13	-0.937 ± 0.13
GGACAGCAAUAUUACGACUA	0.148 ± 0.12	-0.612 ± 0.12
GGACAGCAAUAUUACGACUC	-0.16 ± 0.078	0.231 ± 0.097
GGACAGCAAUAUUACGACUU	-0.232 ± 0.085	1.19 ± 0.1
GGACAGCAAUAUUACGAGGC	-2.17 ± 0.14	-1.32 ± 0.2
GGACAGCAAUAUUACGAUGC	0.225 ± 0.075	0.446 ± 0.09
GGACAGCAAUAUUACGCCCU	-3.25 ± 0.2	-0.306 ± 0.14
GGACAGCAAUAUUACGCGGU	-4.03 ± 0.23	-1.6 ± 0.15
GGACAGCAAUAUUACGCGUG	-1.17 ± 0.065	-0.234 ± 0.074
GGACAGCAAUAUUACGCUAA	-0.66 ± 0.1	-0.339 ± 0.12
GGACAGCAAUAUUACGCUUU	-1.39 ± 0.065	-0.538 ± 0.087
GGACAGCAAUAUUACGGAGU	-1.61 ± 0.12	-1.12 ± 0.11
GGACAGCAAUAUUACGGAUG	-3.44 ± 0.16	-0.131 ± 0.11
GGACAGCAAUAUUACGGUGG	-1.71 ± 0.11	-1.53 ± 0.14
GGACAGCAAUAUUACGUAAC	-0.0173 ± 0.1	-0.0671 ± 0.14
GGACAGCAAUAUUACGUACU	-1.22 ± 0.097	-0.317 ± 0.1
GGACAGCAAUAUUACGUAUA	-0.645 ± 0.1	-0.388 ± 0.095
GGACAGCAAUAUUACGUCCA	-1.24 ± 0.13	-0.889 ± 0.16

Sequence	self-splicing fitness (ln) (30 °C)	self-splicing fitness (ln) (37 °C)
GGACAGCAAUAUUACGUGAC	-1.07 ± 0.081	-1.23 ± 0.13
GGACAGCAAUAUUACGUGUG	-1.55 ± 0.05	-0.79 ± 0.066
GGACAGCAAUAUUACGUUGA	-0.48 ± 0.07	0.279 ± 0.098
GGAGAGCAAUAUUACGAAAG	-2.26 ± 0.26	
GGAGAGCAAUAUUACGAACU	-1.36 ± 0.31	-1.92 ± 0.37
GGAGAGCAAUAUUACGAAUC	-3.58 ± 0.49	-2.4 ± 0.39
GGAGAGCAAUAUUACGAGGA	-3.52 ± 0.31	-2.44 ± 0.19
GGAGAGCAAUAUUACGAGGG	-1.99 ± 0.38	
GGAGAGCAAUAUUACGAUUC	-1.58 ± 0.29	-0.911 ± 0.26
GGAGAGCAAUAUUACGCAAA	-3.82 ± 0.43	
GGAGAGCAAUAUUACGCAUA	-3.12 ± 0.26	-2.73 ± 0.23
GGAGAGCAAUAUUACGCUUC		-1.31 ± 0.43
GGAGAGCAAUAUUACGGAUG		-1.45 ± 0.35
GGAGAGCAAUAUUACGGCAG	-3.29 ± 0.38	
GGAGAGCAAUAUUACGGCUU	-0.815 ± 0.2	-2.01 ± 0.3
GGAGAGCAAUAUUACGGGUC	-1.54 ± 0.15	-1.53 ± 0.2
GGAGAGCAAUAUUACGGUCC		-1.17 ± 0.34
GGAGAGCAAUAUUACGGUGC	-3.03 ± 0.12	-1.57 ± 0.11
GGAGAGCAAUAUUACGGUUU	-2.6 ± 0.094	-1.15 ± 0.092
GGAGAGCAAUAUUACGUACA		-1.61 ± 0.47
GGAGAGCAAUAUUACGUCGC	-1.99 ± 0.39	0.588 ± 0.38
GGAGAGCAAUAUUACGUGGA		-3.26 ± 0.32
GGAUAGCAAUAUUACGAGAC	-2.63 ± 0.25	-2.63 ± 0.48
GGAUAGCAAUAUUACGAUAG	-2.63 ± 0.23	-2.86 ± 0.47
GGAUAGCAAUAUUACGCAAU	-1.83 ± 0.41	-0.704 ± 0.23

Sequence	self-splicing fitness (ln) (30 °C)	self-splicing fitness (ln) (37 °C)
GGAUAGCAAUAUUACGCGGG	-3.3 ± 0.17	-0.931 ± 0.11
GGAUAGCAAUAUUACGCUAA	-2.07 ± 0.16	-1.03 ± 0.22
GGAUAGCAAUAUUACGGAAG	-3.41 ± 0.26	-2.85 ± 0.24
GGAUAGCAAUAUUACGGAAU	-2.48 ± 0.17	-2.33 ± 0.24
GGAUAGCAAUAUUACGGCGU	0.322 ± 0.093	0.626 ± 0.1
GGAUAGCAAUAUUACGGGCA	-2.6 ± 0.26	-0.844 ± 0.11
GGAUAGCAAUAUUACGGUAC	-1.59 ± 0.14	0.179 ± 0.13
GGAUAGCAAUAUUACGGUGU	-1.3 ± 0.059	-1.05 ± 0.083
GGAUAGCAAUAUUACGGUUC	-2.54 ± 0.23	-2.05 ± 0.28
GGAUAGCAAUAUUACGUAAU	-1.99 ± 0.13	-0.617 ± 0.14
GGAUAGCAAUAUUACGUACG	-0.84 ± 0.21	-0.97 ± 0.25
GGAUAGCAAUAUUACGUCGA	-0.726 ± 0.1	-0.0349 ± 0.098
GGAUAGCAAUAUUACGUGAA	-1.83 ± 0.07	-1.13 ± 0.081
GGAUAGCAAUAUUACGUGCU	-1.26 ± 0.085	-1.21 ± 0.12
GGAUAGCAAUAUUACGUUCA	-0.502 ± 0.1	-0.00255 ± 0.15
GGAUAGCAAUAUUACGUUCU	-1.88 ± 0.15	-2.27 ± 0.24
GGAUAGCAAUAUUACGUUGG	-2.7 ± 0.16	-2.17 ± 0.22
GGCAAGCAAUAUUACGAAGG	-3.36 ± 0.17	-2.05 ± 0.19
GGCAAGCAAUAUUACGACAA	-0.0702 ± 0.12	-0.492 ± 0.13
GGCAAGCAAUAUUACGACAG	-3.74 ± 0.22	-2.63 ± 0.24
GGCAAGCAAUAUUACGACCA	-1.23 ± 0.12	-0.321 ± 0.13
GGCAAGCAAUAUUACGACUA	-0.26 ± 0.13	0.336 ± 0.14
GGCAAGCAAUAUUACGCACU	-0.587 ± 0.06	-0.483 ± 0.075
GGCAAGCAAUAUUACGCAGU	-1.88 ± 0.12	-1.43 ± 0.13
GGCAAGCAAUAUUACGCCAC	-3.87 ± 0.43	

Sequence	self-splicing fitness (ln) (30 °C)	self-splicing fitness (ln) (37 °C)
GGCAAGCAAUAUUACGCCUA	-1.04 ± 0.14	-1.19 ± 0.13
GGCAAGCAAUAUUACGCCUG		-0.621 ± 0.47
GGCAAGCAAUAUUACGCGCG	-0.499 ± 0.065	-0.495 ± 0.081
GGCAAGCAAUAUUACGCUCG	-1.66 ± 0.12	-1.4 ± 0.19
GGCAAGCAAUAUUACGGACG	-0.442 ± 0.089	-0.416 ± 0.086
GGCAAGCAAUAUUACGGAUU	-0.462 ± 0.11	-0.427 ± 0.13
GGCAAGCAAUAUUACGGCAA	0.2 ± 0.086	0.388 ± 0.12
GGCAAGCAAUAUUACGGCGC	-0.3 ± 0.082	-0.265 ± 0.12
GGCAAGCAAUAUUACGGCUA	-0.251 ± 0.11	1.23 ± 0.15
GGCAAGCAAUAUUACGGCUC	-2.55 ± 0.25	-0.854 ± 0.21
GGCAAGCAAUAUUACGGCUU	-0.985 ± 0.074	0.644 ± 0.12
GGCAAGCAAUAUUACGGGAG	-2.47 ± 0.15	-1.44 ± 0.18
GGCAAGCAAUAUUACGGUGC	-2.87 ± 0.16	-1.77 ± 0.17
GGCAAGCAAUAUUACGUAAA	-0.188 ± 0.089	-0.267 ± 0.1
GGCAAGCAAUAUUACGUACG	-0.191 ± 0.058	0.428 ± 0.075
GGCAAGCAAUAUUACGUCGU	-0.68 ± 0.097	0.0841 ± 0.11
GGCAAGCAAUAUUACGUCUC	-0.496 ± 0.087	0.539 ± 0.12
GGCAAGCAAUAUUACGUGAC	-1.6 ± 0.12	-0.479 ± 0.14
GGCAAGCAAUAUUACGUGAG	-1.21 ± 0.059	-0.0615 ± 0.08
GGCAAGCAAUAUUACGUGCG	-1.57 ± 0.1	-0.197 ± 0.099
GGCAAGCAAUAUUACGUGCU	-3.91 ± 0.16	-2.99 ± 0.2
GGCAAGCAAUAUUACGUGUA	-0.7 ± 0.049	-0.0721 ± 0.057
GGCAAGCAAUAUUACGUGUG	-0.694 ± 0.062	-0.126 ± 0.071
